For orientation: koff means the first-order rate constant of dissociation. A lower koff goes with a long-lived complex.

This assay concerns the target HIV-1 envelope glycoprotein gp120 IIIB (HIV-1 (isolate IIIB), UniProt P04578 33-511). The experiment in a line: SPR.

B1: VRC01 from stably transformed (transgenic) Nicotiana tabacum plants (antibody, V domains shown)
VH: QVQLVQSGGQMKKPGESMRISCRASGYEFIDCTLNWIRLAPGKRPEWMGWLKPRGGAVNYARPLQGRVTMTRDVYSDTAFLELRSLTVDDTAVYFCTRGKNCDYNWDFEHWGRGTPVIVSS
VL: EIVLTQSPGTLSLSPGETAIISCRTSQYGSLAWYQQRPGQAPRLVIYSGSTRAAGIPDRFSGSRWGPDYNLTISNLESGDFGVYYCQQYEFFGQGTKVQVD
modifications: N-glycan at N297 in the CH2 region (glycopeptide […]), GnGnXF^3 as the major glycan structure | N-glycan in the FR3 of the VL region (glycopeptide […]), GnGnXF^3 as the major glycan structure
B1 had a koff of 0.000126 s⁻¹.

B2: VRC01 from transiently transformed Nicotiana benthamiana plants (antibody, V domains shown)
VH: QVQLVQSGGQMKKPGESMRISCRASGYEFIDCTLNWIRLAPGKRPEWMGWLKPRGGAVNYARPLQGRVTMTRDVYSDTAFLELRSLTVDDTAVYFCTRGKNCDYNWDFEHWGRGTPVIVSS
VL: EIVLTQSPGTLSLSPGETAIISCRTSQYGSLAWYQQRPGQAPRLVIYSGSTRAAGIPDRFSGSRWGPDYNLTISNLESGDFGVYYCQQYEFFGQGTKVQVD
modifications: N-glycan at N297 in the CH2 region (glycopeptide […]), GnGnXF^3 as the major glycan structure | N-glycan in the FR3 of the VL region (glycopeptide […]), GnGnXF^3 as the major glycan structure
In the case of B2, the dissociation rate constant (koff) was 0.000159 s⁻¹.

B3: VRC01 from HEK cells (antibody, V domains shown)
VH: QVQLVQSGGQMKKPGESMRISCRASGYEFIDCTLNWIRLAPGKRPEWMGWLKPRGGAVNYARPLQGRVTMTRDVYSDTAFLELRSLTVDDTAVYFCTRGKNCDYNWDFEHWGRGTPVIVSS
VL: EIVLTQSPGTLSLSPGETAIISCRTSQYGSLAWYQQRPGQAPRLVIYSGSTRAAGIPDRFSGSRWGPDYNLTISNLESGDFGVYYCQQYEFFGQGTKVQVD
modifications: N-glycan at N297 in the CH2 region (glycopeptide […]), GnGnF^6 as the predominant glycan structure | N-glycan in the FR3 of the VL region (glycopeptide […]), at least ten glycan structures
The molecule B3 had a koff of 5.6e-05 s⁻¹.
